According to publication PMC4245848, “The Aspergillus nidulans Zn(II)2Cys6 transcription factor AN5673/RhaR mediates L-rhamnose utilization and the production of α-L-rhamnosidases”:

T1: His6::RhaR (1-159*) (Aspergillus nidulans (cDNA from strain AR198)) (UniProt A0A0A1I536)
T1 sequence: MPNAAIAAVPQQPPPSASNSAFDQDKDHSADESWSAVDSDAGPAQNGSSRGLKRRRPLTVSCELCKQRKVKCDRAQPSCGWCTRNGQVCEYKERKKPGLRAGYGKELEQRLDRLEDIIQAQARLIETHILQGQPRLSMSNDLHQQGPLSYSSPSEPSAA

T2: His6::RhaR (1-159*) (Aspergillus nidulans (cDNA from strain …, UniProt A0A0A1I536))
T2 sequence: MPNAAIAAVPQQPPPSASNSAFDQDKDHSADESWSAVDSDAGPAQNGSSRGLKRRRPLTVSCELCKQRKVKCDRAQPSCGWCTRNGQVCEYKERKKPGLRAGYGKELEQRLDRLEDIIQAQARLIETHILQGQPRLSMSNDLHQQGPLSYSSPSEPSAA

B1: 35-mer wild type (dsDNA)
DNA 1: AGATCTTCTCGGGGGAAGATCGACCGACCTGGTCC
DNA 2: GGACCAGGTCGGTCGATCTTCCCCCGAGAAGATCT
B2: 35-mer mut1 mut2 (dsDNA)
DNA 1: AGATCTTCTCTGGGGAAGATCGACAGACCTGGTCC
DNA 2: GGACCAGGTCTGTCGATCTTCCCCAGAGAAGATCT

Experiments:
[1] = target: T1, His6::RhaR (1-159*) (Aspergillus nidulans (cDNA from strain AR198)); test: EMSA; details: 25 mM HEPES pH 7.9, 50 mM KCl, 5 mM MgCl2, 1 mM DTT, 0.1 mM EDTA, 1 ug salmon sperm DNA, 20 ul, 4 C 30 min; 5-8% native PAGE in 0.5x TBE at 4 C, ethidium …
His6::RhaR (1-159*) = target: T2, His6::RhaR (1-159*); test: EMSA; 25 mM HEPES pH 7.9, 50 mM KCl, 5 mM MgCl2, 1 mM DTT, 0.1 mM EDTA, 1 ug salmon sperm DNA, 20 ul, 4 C 30 min; 5-8% native PAGE in 0.5x TBE at 4 C, ethidium bromide; details: protein: recombinant; tags: N-terminal His6 (pQE-80L); chain copies: 2; blunt

Molecule | binding [1] | binding result (His6::RhaR (1-159*))
AGATCTTCTCTGGGGAAGATCGACCGACCTGGTCCTGCAGAGCTCCAAGGCTTCCTCTCAGAAAGCCGATTAGTAGAAGCGGAGTCAAAGCAGGGTCAAGACGGACAATTAGAAGCCATGAATGGCGGATCCCAGCCCATGATCGCATACTGTGATCCAAAATCGACATAACTAAGTCACTTCCCTTCGCTTGTATCTGCCCAGCCATCCAACAACTCTA (double strand) [rhaAp 219 bp mut1] | binds more weakly | –
B1 | – | binds
B2 | – | no binding
